Source: patent US20180305431A1 (Novo Nordisk, published 2018)

B1: A8R, A22K(N(eps)tetradecanedioyl-4xgGlu), B3E, B26E, B27E, B28R, desB29, desB30 human insulin (ligand)
chain 1: GIVEQCCRSICSLYQLENYCNK
chain 2: FVEQHLCGSHLVEALYLVCGERGFFEER
modifications: not fully specified; Lys A22 acylated on N(eps) with tetradecanedioyl-4xgGlu
notes: Two-chain acylated insulin analogue; also called Ex. No. 19
B2: A8R, A22K(N(eps)tetradecanedioyl-4xgGlu), B3E, B27E, B28R, desB29, desB30 human insulin (ligand)
chain 1: GIVEQCCRSICSLYQLENYCNK
chain 2: FVEQHLCGSHLVEALYLVCGERGFFYER
modifications: not fully specified; Lys A22 acylated on N(eps) with tetradecanedioyl-4xgGlu
notes: Two-chain acylated insulin analogue; also called Ex. No. 17
B3: A8R, A22K(N(eps)tetradecanedioyl-4xgGlu), B3E, B26E, B27P, B28R, desB29, desB30 human insulin (ligand)
chain 1: GIVEQCCRSICSLYQLENYCNK
chain 2: FVEQHLCGSHLVEALYLVCGERGFFEPR
modifications: not fully specified; Lys A22 acylated on N(eps) with tetradecanedioyl-4xgGlu
notes: also called Ex. No. 16
B4: A14E, A22K(N(eps)hexadecanedioyl-gGlu-2xOEG), B3E, B27E, B28E, B29R, desB30 human insulin (ligand)
chain 1: GIVEQCCTSICSLEQLENYCNK
chain 2: FVEQHLCGSHLVEALYLVCGERGFFYEER
modifications: not fully specified; Lys A22 acylated on N(eps) with hexadecanedioyl-gGlu-2xOEG
notes: Two-chain acylated insulin analogue; also called Ex. No. 26
B5: A14E, A22K(N(eps)tetradecanedioyl-gGlu-2xOEG), B3E, B27E, B28E, B29R, desB30 human insulin (ligand)
chain 1: GIVEQCCTSICSLEQLENYCNK
chain 2: FVEQHLCGSHLVEALYLVCGERGFFYEER
modifications: not fully specified; Lys A22 acylated on N(eps) with tetradecanedioyl-gGlu-2xOEG
notes: Two-chain acylated insulin analogue; also called Ex. No. 2
B6: A14E, A22K(N(eps)tetradecanedioyl-4xgGlu), B3Q, B28D, B29R, desB30 human insulin (ligand)
chain 1: GIVEQCCTSICSLEQLENYCNK
chain 2: FVQQHLCGSHLVEALYLVCGERGFFYTDR
modifications: not fully specified; Lys A22 acylated on N(eps) with tetradecanedioyl-4xgGlu
notes: also called Ex. No. 8
B7: A14E, A22K(N(eps)tetradecanedioyl-4xgGlu), B3Q, B27E, B28E, B29R, desB30 human insulin (ligand)
chain 1: GIVEQCCTSICSLEQLENYCNK
chain 2: FVQQHLCGSHLVEALYLVCGERGFFYEER
modifications: not fully specified; Lys A22 acylated on N(eps) with tetradecanedioyl-4xgGlu
notes: also called Ex. No. 9
B8: A14E, A22K(N(eps)tetradecanedioyl-4xgGlu), B3E, B27E, B28E, B29R, desB30 human insulin (ligand)
chain 1: GIVEQCCTSICSLEQLENYCNK
chain 2: FVEQHLCGSHLVEALYLVCGERGFFYEER
modifications: not fully specified; Lys A22 acylated on N(eps) with tetradecanedioyl-4xgGlu
notes: Two-chain acylated insulin analogue; also called Ex. No. 4

Biological target: membrane-associated human IR-B (plasma membranes of BHK cells stably transfected with the human IR-B insert) (human) (UniProt P06213)
Test: SPA competition vs [125I-A14Y]-human insulin, membrane hIR-B, 0.1% HSA

Row | relative binding affinity (% rel to HI) | Binder
1 | 155 % rel to HI | B1
2 | 130 % rel to HI | B2
3 | 168 % rel to HI | B3
4 | 28.7 % rel to HI | B4
5 | 70.2 % rel to HI | B5
6 | 59.1 % rel to HI | B6
7 | 68.7 % rel to HI | B7
8 | 56.6 % rel to HI | B8

Biological target: T1, solubilised human IR-A (semipurified by wheat germ agglutinin chromatography from baby hamster kidney (BHK) … (human, UniProt P06213-2 28-1370))
T1 construct: mature; Detergent-solubilised holoreceptor captured by anti-IR mouse antibody 83-7 on SPA beads; the precursor is processed into alpha and beta chains; also called hIRA; human insulin receptor (IR), A isoform
Test: SPA competition vs [125I-A14Y]-human insulin, solubilised hIR-A, 0% HSA

T1 sequence (P06213 other isoform, or with tags, fused parts or gaps limits assumed): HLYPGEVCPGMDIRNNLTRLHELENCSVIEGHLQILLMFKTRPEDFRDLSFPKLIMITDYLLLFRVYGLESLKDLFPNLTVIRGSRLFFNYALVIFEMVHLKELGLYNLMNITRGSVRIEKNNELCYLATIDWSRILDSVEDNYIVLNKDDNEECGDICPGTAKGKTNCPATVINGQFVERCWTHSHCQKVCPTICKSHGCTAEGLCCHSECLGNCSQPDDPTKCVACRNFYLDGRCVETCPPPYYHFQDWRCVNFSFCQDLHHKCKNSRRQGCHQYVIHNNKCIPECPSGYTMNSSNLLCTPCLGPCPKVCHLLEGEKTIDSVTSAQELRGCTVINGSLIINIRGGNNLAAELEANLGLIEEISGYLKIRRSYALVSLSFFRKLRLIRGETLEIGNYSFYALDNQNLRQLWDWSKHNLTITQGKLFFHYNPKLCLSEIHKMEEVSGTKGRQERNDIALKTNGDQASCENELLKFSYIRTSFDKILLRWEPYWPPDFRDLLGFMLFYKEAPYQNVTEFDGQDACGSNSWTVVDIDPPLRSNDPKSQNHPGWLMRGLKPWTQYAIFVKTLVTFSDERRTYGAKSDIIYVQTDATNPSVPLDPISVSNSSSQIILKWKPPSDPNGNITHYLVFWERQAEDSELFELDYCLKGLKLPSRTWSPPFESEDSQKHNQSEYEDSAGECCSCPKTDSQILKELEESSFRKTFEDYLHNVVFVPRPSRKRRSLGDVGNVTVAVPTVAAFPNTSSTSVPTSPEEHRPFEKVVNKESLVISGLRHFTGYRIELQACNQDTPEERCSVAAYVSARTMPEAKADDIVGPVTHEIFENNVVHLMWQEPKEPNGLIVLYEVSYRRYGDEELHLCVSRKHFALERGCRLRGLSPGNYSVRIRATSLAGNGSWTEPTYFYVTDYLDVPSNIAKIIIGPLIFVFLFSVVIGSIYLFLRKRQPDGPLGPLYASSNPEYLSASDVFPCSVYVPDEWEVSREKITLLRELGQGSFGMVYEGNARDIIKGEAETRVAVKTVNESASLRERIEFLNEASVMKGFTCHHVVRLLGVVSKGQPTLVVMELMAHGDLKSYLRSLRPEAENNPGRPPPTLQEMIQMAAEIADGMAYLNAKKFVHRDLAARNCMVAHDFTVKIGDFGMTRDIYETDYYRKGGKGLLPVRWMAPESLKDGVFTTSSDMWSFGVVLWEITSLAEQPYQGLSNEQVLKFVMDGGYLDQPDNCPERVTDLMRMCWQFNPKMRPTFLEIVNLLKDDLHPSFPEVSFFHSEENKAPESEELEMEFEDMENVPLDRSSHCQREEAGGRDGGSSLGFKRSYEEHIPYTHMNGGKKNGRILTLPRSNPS

Row | relative binding affinity (% rel to HI) | Binder
9 | 260 % rel to HI | B1
10 | 243 % rel to HI | B2
11 | 317 % rel to HI | B3
12 | 63.7 % rel to HI | B4
13 | 60.4 % rel to HI | B5
14 | 95.6 % rel to HI | B6
15 | 83 % rel to HI | B7
16 | 47.4 % rel to HI | B8

Biological target: T1, solubilised human IR-A (semipurified by …)
Test: SPA competition vs [125I-A14Y]-human insulin, solubilised hIR-A, 1.5% HSA

Row | relative binding affinity (% rel to HI) | Binder
17 | 188 % rel to HI | B1
18 | 163 % rel to HI | B2
19 | 229 % rel to HI | B3
20 | 7.4 % rel to HI | B4
21 | 38.9 % rel to HI | B5
22 | 64.9 % rel to HI | B6
23 | 70.2 % rel to HI | B7
24 | 44.9 % rel to HI | B8

Biological target: membrane-associated human IR-A (plasma membranes of BHK cells stably transfected with the human IR-A insert) (human) (UniProt P06213)
Test: SPA competition vs [125I-A14Y]-human insulin, membrane hIR-A, 0.1% HSA

Row | relative binding affinity (% rel to HI) | Binder
25 | 88.8 % rel to HI | B1
26 | 85.2 % rel to HI | B2
27 | 113 % rel to HI | B3
28 | 19.3 % rel to HI | B4
29 | 50.1 % rel to HI | B5
30 | 34.3 % rel to HI | B6
31 | 36.8 % rel to HI | B7
32 | 36.6 % rel to HI | B8

Biological target: T2, membrane-associated human IGF-1R (plasma membranes of BHK cells stably transfected with the human IGF-IR … (human, UniProt P08069 31-1367))
T2 construct: whole, on cells; Receptor in purified plasma membranes, not on intact cells; also called hIGF1R; insulin-like growth factor 1 receptor
Test: SPA competition vs [125I-Tyr31]-human IGF-1, membrane hIGF-1R, 0.1% HSA
Procedure: The relative binding affinity for either of the membrane-associated human IR-A, IR-B or IGF-1R is determined by competition binding in a SPA setup. IR assays are performed in duplicate in 96-well OptiPlates (Perkin-Elmer Life Sciences). […] Assays are terminated by centrifugation of the plate at 2000 rpm for 2 minutes and bound radioactivity quantified by counting on a TopCount NXT (Perkin-Elmer Life Sciences).
IGF-1R assays are conducted essentially as for the IR binding assays except that membrane-associated IGF-1R and 50 pM [¹²5-Tyr31]-human IGF-1 were employed.

T2 sequence (P08069 31-1367): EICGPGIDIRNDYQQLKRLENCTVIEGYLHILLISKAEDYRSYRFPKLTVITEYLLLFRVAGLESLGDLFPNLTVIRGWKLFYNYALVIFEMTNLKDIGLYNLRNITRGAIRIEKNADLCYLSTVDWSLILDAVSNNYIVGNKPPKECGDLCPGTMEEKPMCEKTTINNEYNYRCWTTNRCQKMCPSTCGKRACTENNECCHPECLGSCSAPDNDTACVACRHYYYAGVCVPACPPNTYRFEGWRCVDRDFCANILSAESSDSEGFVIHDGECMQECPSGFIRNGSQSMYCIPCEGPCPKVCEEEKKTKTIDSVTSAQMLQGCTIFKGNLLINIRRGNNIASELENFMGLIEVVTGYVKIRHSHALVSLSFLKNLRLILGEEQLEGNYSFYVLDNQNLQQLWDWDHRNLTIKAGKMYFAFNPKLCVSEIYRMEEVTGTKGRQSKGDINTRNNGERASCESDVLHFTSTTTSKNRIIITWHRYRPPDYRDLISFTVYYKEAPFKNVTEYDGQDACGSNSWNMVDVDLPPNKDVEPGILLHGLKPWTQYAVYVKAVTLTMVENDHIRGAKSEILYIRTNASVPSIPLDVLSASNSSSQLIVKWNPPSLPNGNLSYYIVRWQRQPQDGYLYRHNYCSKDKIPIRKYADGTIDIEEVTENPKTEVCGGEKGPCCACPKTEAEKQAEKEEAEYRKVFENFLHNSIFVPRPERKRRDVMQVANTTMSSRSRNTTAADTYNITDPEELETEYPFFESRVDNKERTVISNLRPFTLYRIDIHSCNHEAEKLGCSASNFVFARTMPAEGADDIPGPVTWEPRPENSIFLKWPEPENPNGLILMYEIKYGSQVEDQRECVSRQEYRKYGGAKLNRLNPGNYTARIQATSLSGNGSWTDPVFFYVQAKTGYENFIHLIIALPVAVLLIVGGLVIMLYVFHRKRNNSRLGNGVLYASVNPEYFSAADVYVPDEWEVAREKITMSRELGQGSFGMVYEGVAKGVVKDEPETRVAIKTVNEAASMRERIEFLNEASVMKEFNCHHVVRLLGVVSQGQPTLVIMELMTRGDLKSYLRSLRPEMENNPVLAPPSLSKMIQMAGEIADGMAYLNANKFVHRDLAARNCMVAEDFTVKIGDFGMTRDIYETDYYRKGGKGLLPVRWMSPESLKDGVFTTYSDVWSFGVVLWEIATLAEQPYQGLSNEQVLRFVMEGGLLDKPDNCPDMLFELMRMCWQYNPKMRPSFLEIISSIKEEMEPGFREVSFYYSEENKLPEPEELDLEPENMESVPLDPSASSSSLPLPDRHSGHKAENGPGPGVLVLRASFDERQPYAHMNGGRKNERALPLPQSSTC

Row | relative binding affinity (% rel to HI) | Binder
33 | 22.6 % rel to HI | B1
34 | 32.9 % rel to HI | B2
35 | 61.8 % rel to HI | B3
36 | 28.7 % rel to HI | B4
37 | 36.6 % rel to HI | B5
38 | 42 % rel to HI | B6
39 | 29.5 % rel to HI | B7
40 | 28.6 % rel to HI | B8

Biological target: insulin receptor on primary rat adipocytes (rat) (UniProt P15127)
Test: cell-based or functional assay

insulin receptor on primary rat adipocytes (rat), sequence (P15127 27-1383): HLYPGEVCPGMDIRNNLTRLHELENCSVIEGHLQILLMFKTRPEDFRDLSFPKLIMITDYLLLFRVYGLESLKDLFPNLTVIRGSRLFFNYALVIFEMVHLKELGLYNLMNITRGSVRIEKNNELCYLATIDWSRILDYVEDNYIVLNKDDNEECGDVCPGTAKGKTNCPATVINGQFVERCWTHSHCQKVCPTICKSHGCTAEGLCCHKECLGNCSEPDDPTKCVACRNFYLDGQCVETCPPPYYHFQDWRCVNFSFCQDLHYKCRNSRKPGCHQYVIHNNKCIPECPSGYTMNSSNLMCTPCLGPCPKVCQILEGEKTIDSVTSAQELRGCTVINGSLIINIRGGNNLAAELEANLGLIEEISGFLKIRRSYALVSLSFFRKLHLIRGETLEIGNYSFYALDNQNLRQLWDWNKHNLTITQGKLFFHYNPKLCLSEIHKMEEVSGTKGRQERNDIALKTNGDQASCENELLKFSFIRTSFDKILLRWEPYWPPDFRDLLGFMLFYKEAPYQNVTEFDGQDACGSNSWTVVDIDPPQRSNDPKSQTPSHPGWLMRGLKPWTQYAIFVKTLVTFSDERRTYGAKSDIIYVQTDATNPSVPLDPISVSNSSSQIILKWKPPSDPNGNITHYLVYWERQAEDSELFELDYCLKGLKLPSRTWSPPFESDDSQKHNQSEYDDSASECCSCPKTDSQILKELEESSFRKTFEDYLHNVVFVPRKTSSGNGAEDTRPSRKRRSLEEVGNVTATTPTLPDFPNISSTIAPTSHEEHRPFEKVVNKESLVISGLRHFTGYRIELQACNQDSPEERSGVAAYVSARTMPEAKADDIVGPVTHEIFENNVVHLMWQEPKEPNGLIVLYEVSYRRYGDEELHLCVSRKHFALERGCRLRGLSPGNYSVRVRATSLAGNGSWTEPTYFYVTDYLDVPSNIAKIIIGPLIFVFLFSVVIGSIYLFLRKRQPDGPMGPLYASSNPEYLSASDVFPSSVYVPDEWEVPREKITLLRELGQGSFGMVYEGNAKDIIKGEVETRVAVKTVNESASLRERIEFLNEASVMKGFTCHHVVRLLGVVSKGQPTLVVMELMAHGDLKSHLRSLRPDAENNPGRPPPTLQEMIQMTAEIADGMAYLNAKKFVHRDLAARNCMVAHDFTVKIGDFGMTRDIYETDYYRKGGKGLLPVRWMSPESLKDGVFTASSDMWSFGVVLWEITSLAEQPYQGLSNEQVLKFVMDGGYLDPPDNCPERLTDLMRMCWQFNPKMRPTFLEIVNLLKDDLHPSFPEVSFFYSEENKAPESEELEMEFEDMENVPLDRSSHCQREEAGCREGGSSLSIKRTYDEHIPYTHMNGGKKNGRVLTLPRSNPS

Row | Lipogenesis 1% HSA (% rel to HI) | Binder
41 | 80.3 % rel to HI | B1
42 | 70.7 % rel to HI | B2
43 | 130 % rel to HI | B3
44 | 2.6 % rel to HI | B4
45 | 14.2 % rel to HI | B5
46 | 17.2 % rel to HI | B6
47 | 30.1 % rel to HI | B7
48 | 15.4 % rel to HI | B8
